Results reported in patent US7122190.

Key:
[1] = biological target: viral gp41 (HIV-1IIIB transmembrane protein on infected cells and virions) (HIV-1IIIB) (UniProt P04578); experiment: cell-based or functional assay
[2] = biological target: viral gp41 of HIV-1 (on virions and HIV-1 infected cells) (HIV-1) (UniProt P03377); experiment: cell-based or functional assay

Q: How did the Cell fusion (IC90) [1] turn out when “M41 (maltose binding protein fused to the extracellular domain of HIV-1 gp41, residues 540-686) (from UniProt P03377 540-686)” was run?
A: > 50 µM

Q: And the HIV infectivity (IC90) [1]?
A: > 16 µM

Q: “M41-P, M41 with an Ile to Pro mutation at position 578 (from UniProt P03377 540-686)” was tested. Which 90% block of syncytia formation (HIV-1IIIB cell fusion assay) [2] did it give?
A: 85 nM

Q: And the 90% neutralisation of HIV-1IIIB infection [2]?
A: 70 nM
